Laboratory results as given in the nanobody polyreactivity screen of Harvey et al. (2022).

Assay: yeast display, Sf9 membrane polyspecificity reagent, FACS + sequencing; frameworks hold sequencing errors
How it was run: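 Galactose induction of a Saccharomyces cerevisiae BJ5465 synthetic nanobody display library ran 36–48 hours. The cells were then stained for 1 hour at 4 °C with 10% biotinylated, detergent-solubilized Sf9 membrane reagent, pulled down on streptavidin microbeads and FACS-sorted into low and high (top ~1%) gates on expression and reagent-binding fluorescence. Labels for polyreactivity follow the gate of origin.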

Sequence | polyreactivity (PSR sort gate)
QVQLVESGGGLVQAGGSLRLSCAASGIIFRYYTMGWYRQAPGKERELVAAITQSSGRTYYADSVKGRFTISRDNAKNTVYLQMNCLIPEDTAVFYCNVRPLRSYRAVDYWGQGTQVTVSS | high polyreactivity
QVQLVESGGGLVQAGGSLRLSCAASGSIFGYYAMGWYRQAPGKERELVADITVRGGSTYYADSVNGRFTISRDNAKNTVYLQMNSLKPEDTAVYYCAKRFKYIYYWGQGTQVTVSS | high polyreactivity
QVQLVESGGGLVQAGGTLRLSCAASGRIFVYYTMGWYRQAPGKERELVAAITCSGGSTYYADTVKGRFTISRDNEKNPVYLQMNSLKPEDTAVYYCAADGYADYYGWGYWTEYDYWGQGTQVTVSS | low polyreactivity
QDQLVESGGGLVQAGGSLRLSCAASGFIFDLYAMGWYRQAPGKERELVAVISYDGGSTYYADSVKGRFTISRDNAKNTVYLQMNSLKPVDTAVYYCNTYAGLVSPSDLYDYWGQGTQVTVSS | low polyreactivity
QVQLVESGGGLVQAGGSLRLSCAASGSTFYYNAMGWYRQAPGKERELVAAIRTSGGRTYYADSVKGRFTISRDNAKNTVYLQMNSLKPEDTAVYYCAADGTAVHYTYDYWGQGTQVTVSS | low polyreactivity
QVQLVESGGGLVQAGGSLRLSCAASGYTFVDYAMGWYRQAPGKERELVAAISSSGARTYYAYSVKGRFTISRDNAKNSVYLQMNSLKAEDTAVYYCNTPRPYEITTPEYYYWGQGTQVTVSS | high polyreactivity
QVQLVESGGGLVHAGGSLRISCAPSGLTFLYNAMGWYRQAPGKERELVAAISQSAGSTYYADSVKGRFTISRDNAKNTVYLQMNSLKPEDTAVYYCAAEWDSPDLVIYDYWGQGTQVTVSS | low polyreactivity
QVQLVESGGGLVQAGGSLRLSSAASGYTFSRNAMGWYRQAPGKERELVASISSRGGSTRYADSVKGRFTISRDNAKYTVYLQMNSLKPEDTAVYYCAVRGLYSPFTYGYWGQGTQVTVSS | high polyreactivity
QVQLVESGGGLVQAGGSLRLSCAASGYTFATYTMGWYRQAPGKERELVAAITGGGGSTSYADSVKGRFTISRDNAKNTVYLQMNSLKLEDTAVYYCNAGISVDYSLEKYDYWGQGTQVTVSS | low polyreactivity
QVQLVESGGGLVQAGGSLRLSCAASGFIFRYYAMGWYRQAPGKERELVAAISWSGTRTFYADSVKGRFTISRDNAKNTVYLQMNSLKPEDTAVYYCAAETTGYDSYIQYEYWGQGTQVTVSS | high polyreactivity
QVQLVESGGGLVQAGGSLRLSSAASGRIFKGNAMGWYRQAPGKERELVAAISKRGGSTHYADSVKGRFTISRDNSKNTVYLQMNSLKPEDTAVYYCATDSYYVGAVHYYYWGQGTQVTVSS | high polyreactivity
QVQLVESGGGLVQAGGSLRLSCAASGSTFGYYAMGWYRQAHGKERELVAAITSGGSTNYADSVKGRFTISRDNAKNTVYLQMNSLKPEDTAVYYCAAADSYRYHLRRYNYWGQGTQVTVSS | low polyreactivity
QVQLVESGGGLVQAGGSLRLSCAASGSTFGQNAMGWYRQAPGKERELVAAITRRGVSTYYADSVKGRFTISRDNAKNTVYLQMNSLKPEDTAVYYCAKRYHPNSPYDYWGQGTQVTVSS | low polyreactivity
QVQLVESGGGLVQAGGSLRLSCAASGSTFPRNAMGWYRQAPGKERELVAAISYSGGRTYYADSVKGRFTISRDNAKNTVYLQMNSLKPEDTAVYYCAAQPYSHVRGKSYGYWGQGTQVTVSS | high polyreactivity
QVQLVESGGGLVQAGGSLRLSCAASGSIFTVYAMGWYRQAPGKERELVAVINYRGGNTYYADSVKGRFTISRDNAKNTVYLQMNSLKPEDTAVYNCATEVSWHWYQLSVPRMDYWGQGTQVTVSS | low polyreactivity
QVQLVESGGGLVQAGGSLRLSCAASGSIFRRYAMGWYRQAPGKERELVAVITTDGSTYYADSVKGRFTISRDNAKNTVYLQMNSLKPEDTAVYYCAADVRHYIWEYYYWGQGTQVTVSS | low polyreactivity

Sequence | polyreactivity (PSR sort gate)
QVQLVESGGGLVQAGGSLRLSCAASGYTSRTNAMGWYIQAPGKERELVAAITWRGTRTYYADSVKGRFTISRDNAKNTVYLQMNSLKPEDTAVYYCATQWIRKYDYWGQGTQVTVSS | high polyreactivity
QVQLVESGGGLVQAGCSLRLSCAASGSIFSAYSMGWYRPAPGKEREFVAAITRRGGNTYYADSVKGRFTISRDNAKNTVYLQMKSLKPEDTAVYYCAASYNGLWHGDYDYWGQGTQVTVSS | low polyreactivity
QVQLVETGGGLVQAGGSLSLSCAGSGHTFTNNAMGWYRQAPGKERELVAAITFSGGRTYYADSVKGRFTISRDNAKNTVYLQKNSLKPEDTAVYYCDAVNPGGSIYDYWGQGTQVTVSS | low polyreactivity
QVQLVESGGGLVQAGGSLRLTCAASGRTFVENAMGWYRPATGKERELVAAITYSGGGTYYADSVKGRFTISRDNAKNTVYLQMNSVKPEDTAVYDCAATIPYSLDGYDYWGQGTQVTVSS | low polyreactivity
QVQLVESGGGLVQAGGSLRLSCAASGNNFYINAMGSYRQAPGKERELVAAIRGGGSTYYADSVKGRFTISRDNAKNTVYLQMNSLKPEDTAVYYCAARGRRLNPQYRAFGMDYWGQGTQVTVSS | high polyreactivity
QVQLVESGGGLVQAGGSLRLSCAASGRTFANYAMGWYRQAPGKDRELVAAIYSGGNTYYEDSVKGRFTISRDNAKNTVFLQMNRLKPEDTAVYYCNSPWYYRYQRNEYGYWGQGTQVTVSS | high polyreactivity
QLQLVESGGGLVKAGGSLRLSCADSGLIFRNNCMGGYRHAPRKERELVAAISNRGGSTYYADSVKGRFTISRDNAKNTVYLQMNSLKPEDTAVYDCNAVASYSQGGYRYDYWGQGTQVTVSS | high polyreactivity
QVQLVESGGGLVQAGGSLRLSCAASGLTFIRYAMGWYRQAPGKERELVASISRGGSTYYADSVKGRVTISRDNAKNTVYLQMNSLKPEDTAVYYCAAQHVGHNYYNSGFYYWGQGTQVTVSS | low polyreactivity
QVQLVESGGGLDQAGGSLRLSCAASGSTLGRYTMGWYRQAPGKERELVAAITRGGRTNYADSVKGRFTISRDNAKNTVYLQMNSLKPEDTAVYYCAKLYRYGDYDYWGQGTQVTVSS | high polyreactivity
QVQLVESGGGLVQAGGSLRLSCAASGSTFGYYAMGWYRQAPGKERELVAAITRGASTYYADSVNGRFTISRDNAKNTVYLQMNSLKPDDTAVYYCAFDTWKVQGASSRYRKMYYWGQGTQVTVSS | low polyreactivity
QVQLEESGGGLVQAGGSLRLSCAASGFTFYIYALGWYRQAPGKERELVAAISSSGTRTYYADSVKGRFTISRDNAKNTVYLQMNSLKPEDTAVYYCAATRYSWHNRVSRRHRYDYWGQGTQVTVSS | high polyreactivity
QVQLVESGGGLVQAGGSLRLSCAASGRTFTYYAMGWYRQAPGKERELVAAIRYTGGSTHYADSVKGRFTISRDNAKNTVYLQMNSLKPEDKAVYYCAARRAYTRGGTVYFGYYYWGQGTQVTVSS | high polyreactivity
QVQLVESGGALVQAGGSLRLSCAASGSIFPANPMGWYRQAPGKEWEFVAAINWSTGTTYYADSVKGRFTISRDNGKNTVYLQMNSLKPEDTAVYYFNASDQAKYDYWGQGTQVTVSS | low polyreactivity
QVQLVESGGGLVQAGGSLRLSCAASGGIFRVYAMGWYRQAPGKERELVAAISRSGSSTYYAVSVKGRFTISRDNAKNTVYLQMNSLKPEDTAVYYCNAYSQYWLGNNYWGEGTQVTVSS | high polyreactivity
QVQLVESGGGLVQAGGSLRLSCAASGSTFGGYTMGWYRQAPGKERELVAAITSGGGRTYYADSVKGRFTISRDNSKNTVYLQMNSLKPEDTAVYYCATGYKGLYWKYDYWGQGTLVTVSS | high polyreactivity
